According to patent US10765616B2, “Oral formulation of polyglucosamine derivatives in combination with a non-fermentable sugar” (SYNEDGEN, INC., priority 2013, dated 2020):

Legend:
S. mutans biofilms [1] = test: Comparative biofilm reduction study of oral rinses and active ingredients (MBEC pegs); assay type: cell-based, Streptococcus mutans; conditions: 72 h S. mutans biofilms, treated 2 minutes twice (6-hour interval), vs water control, active ingredients at the concentration printed in the row or sentence
Procedure: Biofilms of S. mutans were grown on hydroxyapatite-coated pegs according to MBEC Assay™ methods for 72 hours, and then treated with the oral rinses or a water control. The corresponding active ingredients were also evaluated. The biofilms were exposed for 2-minutes, twice in a 6-hour interval to evaluate biofilm removal. Following treatment, biofilms were rinsed, fixed, and stained with 0.4% Crystal Violet, and remaining biofilm was quantitated via CFU or OD595 (Beenken and Smeltzer, 2003). Biofilms were analyzed in triplicate in at least 3 independent assays. Ratios were averaged from all assays and the percent biofilm reduced and standard error compared to water control is shown.

A431 epithelial cells = system: A431 epithelial cells
Procedure: Human epithelial cell monolayers of A431 (ATCC CRL-1555) were seeded in tissue culture treated 96-well plates at a density of 2×10^4 cells/well in DMEM media supplemented with 10% FBS, 1% Penicillin-Streptomycin, and 1% Amphotericin B. Seeded cells were incubated at 37° C. with 5% CO2 for 48 hours. The media was removed and replaced with serum-free, antimicrobial-free media and rinsed one time for 30 seconds with PAAG Oral Formulation H, other oral products (Biotene, Corsodyl, Peroxyl, or Listerine), 32 μg/mL PAAG (30% functionalized, 86 kDa) and other active ingredients (0.029% lactoferrin, 0.2% chlorhexidine gluconate, 1.5% hydrogen peroxide, or 20% alcohol). Epithelial cell viability was determined by ATPLite Luminescence ATP Detection Assay System (PerkinElmer). Testing was done in duplicate.
Epithelial cell viability was compared between PAAG and other oral active ingredients and oral rinse products. Human epithelial cell monolayers were rinsed once for 30 seconds with each treatment. Following treatment, the epithelial cells were evaluated with ATP LITE Luminecence assay that measured viability via ATP. The data was normalized to untreated cells to compare percent survival (FIG. 4). […] Epithelial cell viability was determined by ATPLite Luminescence ATP Detection Assay System (Perkin Elmer) and compared to media rinsed cells.

S. mutans biofilms [2] = test: MBEC peg biofilm biomass reduction assay of active ingredients (twice daily, OD595); assay type: cell-based, Streptococcus mutans; conditions: 2 minutes, 8-hour interval, 32 μg/mL PAAG, 1.5% hydrogen peroxide, alcohol, lactoferrin, chlorhexidine
Procedure: The S. mutans biofilms were grown according to MBEC™ for High-throughput Screening methods (Innovotech) on a hydroxyapatite-coated peg lid placed in trough containing BHI media supplemented with 1% sucrose rocking for 72 hours. The pegs were treated twice daily with PAAG (30% functionalized, 86 kD) active ingredients (FIG. 9) at 8-hour intervals for 2-minutes. The biofilms were rinsed in PBS, and the pegs were removed and placed into 200 μl 95% ethanol each for 2 minutes to fix the biofilms. The MBEC-HTP biofilms were stained with 150 μl of 3% Crystal Violet dye each for 2 minutes, and rinsed five times with PBS. It was noted that chlorhexidine appears to “fix” the biofilm to the pegs. The bacteria may or may not be viable because OD measured biofilm biomass, not viable CFUs. The stained and rinsed MBEC-HTP biofilms were then placed in 150 μL ethanol for 1-minute to remove the dye/biofilm. Then 100 μL of the ethanol and dyed biofilm suspension was placed into a 96-well plate and the OD595 was measured to quantify the remaining stained biofilm biomass.

B1: lactoferrin (protein, UniProt P02788 20-710, looked up)
Lactotransferrin: GRRRSVQWCAVSQPEATKCFQWQRNMRKVRGPPVSCIKRDSPIQCIQAIAENRADAVTLDGGFIYEAGLAPYKLRPVAAEVYGTERQPRTHYYAVAVVKKGGSFQLNELQGLKSCHTGLRRTAGWNVPIGTLRPFLNWTGPPEPIEAAVARFFSASCVPGADKGQFPNLCRLCAGTGENKCAFSSQEPYFSYSGAFKCLRDGAGDVAFIRESTVFEDLSDEAERDEYELLCPDNTRKPVDKFKDCHLARVPSHAVVARSVNGKEDAIWNLLRQAQEKFGKDKSPKFQLFGSPSGQKDLLFKDSAIGFSRVPPRIDSGLYLGSGYFTAIQNLRKSEEEVAARRARVVWCAVGEQELRKCNQWSGLSEGSVTCSSASTTEDCIALVLKGEADAMSLDGGYVYTAGKCGLVPVLAENYKSQQSSDPDPNCVDRPVEGYLAVAVVRRSDTSLTWNSVKGKKSCHTAVDRTAGWNIPMGLLFNQTGSCKFDEYFSQSCAPGSDPRSNLCALCIGDEQGENKCVPNSNERYYGYTGAFRCLAENAGDVAFVKDVTVLQNTDGNNNEAWAKDLKLADFALLCLDGKRKPVTEARSCHLAMAPNHAVVSRMDKVERLKQVLLHQQAKFGRNGSDCPDKFCLFQSETKNLLFNDNTECLARLHGKTTYEKYLGPQYVAGITNLKKCSTSPLLEACEFLRK
- Percent (%) Biomass Reduced (S. mutans biofilms [1]): 25.6 ± 4.3%
- Percent (%) Biomass Reduced (S. mutans biofilms [1]; listed as lactoferrin): 25.6±4.3%
- epithelial cell viability (A431 epithelial cells): maintain epithelial cell viability
- reduction in S. mutans biofilm biomass compared to water control (S. mutans biofilms [2]): did not significantly reduce
